In publication PMC9834240, “Senescent cells perturb intestinal stem cell differentiation through Ptk7 induced noncanonical Wnt and YAP signaling” (Nature Communications, 2023):
Values joined by “and” are separate entries in the source; they are usually repeats but may differ in a detail not shown here. Equal entries are not always repeated. “Also recorded” adds a separate entry of the source.

How the values were obtained:
Format in all cases: cell-based
[1] = tested on: YAP in mouse intestinal organoids; assay: whole mount immunostaining for YAP nuclear localization
Method: For whole mount staining, freshly passaged crypts were mixed with Matrigel (Corning, #356231) and mounted to µ-Slide 8 well chamber slides (ibidi, #80826). Media were changed every 2–3 d. 5 days later, organoids in the chamber slides were then fixed in 4% formaldehyde in PBS for 30 min, permeabilized with 0.5% Triton X-100 for 1 h, and incubated in blocking solution (3% normal donkey serum (Sigma-Aldrich, #566460) and 5% BSA (Sigma-Aldrich, #A7979) in 0.1% Triton X-100 + PBS) for 1 h. Primary and secondary antibodies were diluted in blocking solution and added to fixed organoids. Organoids were incubated with primary antibodies overnight at 4 °C and with secondary antibodies for 2 h. ProLong Diamond Antifade Mountant (Invitrogen, # P36970) was added. Images were acquired with a Yokogawa CSU-W1/Zeiss 3i Marianas spinning disk confocal microscopy system. For each organoid, Z-planes up to 100 μm with 1 or 1.5 μm z-steps were acquired to quantify the number of cell types.

[2] = tested on: mouse intestinal organoids; assay: RNAseq of intestinal organoids; conditions: 2 days
Method: Total RNA was isolated using the RNeasy Plus Mini Kit (Qiagen, #74134) per manufacturer’s instructions. Total RNA was quantified with Qubit RNA HS Assay Kit (Thermo Fisher Scientific, #Q32852) and quality was assessed using RNA ScreenTape on 4200 TapeStation (Agilent Technologies, #5067-5576). cDNA library was generated from 2 ng of total RNA using Smart-Seq V4 Ultra Low Input RNA Kit (Takara, #634894). 150 pg of cDNA was used to make sequencing libraries by Nextera XT DNA Sample Preparation Kit (Illumina, #FC-131-1024). Libraries were quantified with Qubit dsDNA HS Assay Kit (Thermo Fisher Scientific, #Q32851) and the average library size was determined using D1000 ScreenTape on 4200 TapeStation (Agilent Technologies, #5067-5582). Libraries were pooled and sequenced on NovaSeq 6000 (Illumina) to generate 30 millions single-end 50-base pair reads for each sample.
Sequencing reads were filtered and aligned using HTSeqGenie v4.2.2. […] Reads within coding sequences were counted to determine an estimate of gene expression. Read counts were scaled by library size, quantile normalized and precision weights were calculated using the voom R package. […] Differential gene expression was calculated using voom+limma with multiple-hypothesis correction of P values performed using the Benjamini-Hochberg method. […]

[3] = tested on: mouse intestinal organoids; assay: inhibition of Wnt5a-induced cystic organoids; conditions: individual mice, n = 3
Method: (§1) The jejunum part of the small intestine was removed, flushed with PBS, opened longitudinally, then cut into 0.5 cm pieces. The collected tissues were washed with ice cold PBS multiple times by vortexing and incubated in PBS containing 2.5 mM EDTA for 5 min at 37 °C. After gentle shaking and aspiration, tissues were incubated in PBS containing 5 mM EDTA for 7 min at 37 °C. Tissues were then washed with PBS to remove EDTA and vigorously shaken to release crypts. The released crypts were passed through 70 μm strainers, washed with PBS, and pelleted by centrifugation at 200 × g. Resuspended crypts were mixed with Matrigel (Corning, #356231; Lot#8218007) and pipetted into culture plates. After mixture of crypts and Matrigel solidified, IntestiCult Organoid Growth Medium (Stem Cell Technologies, #06005; Lots #1000021927, #1000034230, #1000037372) was added. Seven days after seeding, organoids were resuspended in dissociation buffer (Gentle Cell Dissociation Reagent; Stem Cell Technologies, #07174), dissociated by pipetting, and seeded for experiments.
(§2) 3-4 biological replicates of organoids from different mice were used per condition. Organoids were cultured in the indicated media, inhibitors, antibodies and/or recombinant proteins for 5 d and fixed in 4% formaldehyde in PBS. Organoids were imaged with a 4× Plan Fluor objective (NA: 0.13, Nikon) on a Nikon Ti-E inverted microscope equipped with a Neo scMOS camera (Andor, Oxford Instruments), a linear encoded automated stage (Applied Scientific Instrumentation), all run by NIS Elements software (Nikon). Organoids were imaged in brightfield and images covering the whole well were stitched and focused into one image projection with an extended depth of focus module (EDF; Nikon). One hundred to 200 organoids per replicate per condition were counted and used for quantification. The number of budding organoids in each condition was normalized by the number of budding organoids in untreated or DMSO treated controls to calculate cystic organoid percentage:1 Cysticorganoidpercentage=100×1−Numberofbuddingorganoidsfromexperiment/Numberofbuddingorganoidsfromcontrol

[4] = tested on: mouse intestinal organoids; assay: cystic organoid percentage, organoids treated with recombinant Wnt ligands (Wnt3a, Wnt5a, Wnt11); conditions: for percentage of cystic organoids: Fig. 4e, individual mice, n = 3; for cystic organoids (sheet SF.5b): Wnt5a + DMSO, relative to Untreated = 0
Method: as §1, §2

[5] = tested on: β-Catenin-dependent Wnt signaling (HEK293-TB cells); assay: TOPbrite dual-luciferase Wnt reporter assay; conditions: SF.3e
Method: Generation of HEK293 cells stably expressing a TOPbrite firefly luciferase Wnt reporter and pRL-SV40 Renilla luciferase (HEK293-TB) was previously described. HEK293-TB cells were maintained in DMEM/F12 (50:50), supplemented with 10% FBS, 2 mM Glutamax (Gibco, #35050-061) and 40 μg/ml hygromycin (Cellgro, #30-240-CR). For the luciferase reporter assay, HEK293-TB cells were seeded in 96-well plates (Falcon, #353377). The next day, cells were treated with indicated Wnt ligands (50 ng/ml) or CM diluted in culture media. After 24 h, the firefly and Renilla luciferase activity was measured using Dual-Glo Luciferase Assay system (Promega, #E2940) on a Perkin Elmer EnVision multilabel reader. The ratios of firefly luminescence to Renilla luminescence were calculated and normalized to control samples that were not treated.

[6] = tested on: cytosolic Ca2+ in mouse intestinal organoids; assay: live Ca2+ imaging of mouse intestinal organoids (GCaMP6f/tdTomato: baselined area under curve, peak number, height, width); conditions: live organoids expressing GCaMP6f
Method: Z stacks were acquired every 10 s.
Z-stack images were converted to mean intensity projections and, where required; background was subtracted using a rolling ball algorithm. Segmentation was conducted on a max-projection over-time of the GCaMP6f channel using Cellpose’s pre-trained “Cytoplasm” classifier. Mean intensity traces were measured in each ROI over the time course in both the GCaMP6f and TdTomato channels using scikit-image[138]. Ca^2+ oscillation patterns were calculated in an unsupervised, automated manner using MATLAB. Mean intensity traces were smoothed using a Savitzky-Golay filter and peaks were identified using the “findpeaks” algorithm from the MATLAB Signal Processing Toolbox. Graphs for GCaMP6f/tdTomato fluorescence ratio, peak numbers, peak height, peak width and baselined area under the curve were generated using Python matplotlib and seaborn packages. Statistical analysis was performed using Python SciPy and scikit-post-hoc packages.

B1: Wnt5a: recombinant protein, R&D Systems 645-WN-010 (protein)
chain: IIGAQPLCSQLAGLSQGQKKLCHLYQDHMQYIGEGAKTGIKECQYQFRHRRWNCSTVDNTSVFGRVMQIGSRETAFTYAVSAAGVVNAMSRACREGELSTCGCSRAARPKDLPRDWLWGGCGDNIDYGYRFAKEFVDARERERIHAKGSYESARILMNLHNNEAGRRTVYNLADVACKCHGVSGSCSLKTCWLQLADFRKVGDALKEKYDSAAAMRLNSRGKLVQVNSRFNSPTTQDLVYIDPSPDYCVRNESTGSLGTQGRLCNKTSEGMDGCELMCCGRGYDQFKTVQTERCHCKFHWCCYVKCKKCTEIVDQFVCK
modifications: biotin
- effect on nuclear localization of YAP [1]: increased nuclear localization of YAP
- Ptk7-dependent DEGs with TEAD binding motifs [2]: increased expression
- percentage of cystic organoids ([3]; Fig. 4g, Wnt5a + DMSO): 46.8995% and 39.0061% and 36.0342%
- percentage of cystic organoids ([3]; Fig. 4i, Wnt5a + IgG): 49.9365% and 63.1809% and 67.3433%
- percentage of cystic organoids ([4]; Wnt5a 25 ng/ml): 14.1026% and 5.06% and 6.32%
- percentage of cystic organoids ([4]; Wnt5a 50 ng/ml): 23.3312% and 3.761% and 10.619%
- percentage of cystic organoids ([4]; Wnt5a 100 ng/ml): 26.0174% and 31.7553% and 21.762%
- percentage of cystic organoids ([4]; Wnt5a 250 ng/ml): 40.092% and 41.2431% and 44.3989%
- percentage of cystic organoids ([4]; Wnt5a 500 ng/ml): 62.8247% and 56.8452% and 53.6325%
- cystic organoids (sheet SF.5b) ([4]; replicate 1): 22.713
- cystic organoids (sheet SF.5b) ([4]; replicate 2): 18.3144
- cystic organoids (sheet SF.5b) ([4]; replicate 3): 19.185
- cystic organoids (sheet SF.5b) ([4]; replicate 4): 14.2949
- cystic organoid size ([4]; Wnt5a compared to Wnt3a): larger than those treated with Wnt3a
- induction of cystic organoids ([4]; recombinant Wnt ligand added to crypt cultures): dose-dependently increased organoids with cystic morphology
- TOPbrite dual-luciferase Wnt reporter activity ([5]; replicate 1): 0.3121
- TOPbrite dual-luciferase Wnt reporter activity ([5]; replicate 2): 0.2591
- TOPbrite dual-luciferase Wnt reporter activity ([5]; replicate 3): 1.226
- TOPbrite dual-luciferase Wnt reporter activity ([5]; replicate 4): 1.185
- effect on cytosolic Ca2+ levels and oscillations [6]: cytosolic Ca^2+ levels and oscillations increased; also recorded: modulate cytosolic Ca^2+ oscillations
